Test results: the DeepSol protein solubility set

Assay: soluble on expression in E. coli; label from the status in PepcDB or PDB records

Row | Sequence | soluble on expression in E. coli
1 | MGHHHHHHSHTKSARVKGLSFHPKRPWILTSLHNGVIQLWDYRMCTLIDKFDEHDGPVRGIDFHKQQPLFVSGGDDYKIKVWNYKLRRCLFTLLGHLDYIRTTFFHHEYPWILSASDDQTIRVWNWQSRTCVCVLTGHNHYVMCAQFHPTEDLVVSASLDQTVRVWDISGLRKKNLSPGAVESDVRGITGVDLFGTTDAVVKHVLEGHDRGVNWAAFHPTMPLIVSGADDRQVKIWRMNESKAWEVDTCRGHYNNVSCAVFHPRQELILSNSEDKSIRVWDMSKRTG | soluble
2 | MGHHHHHHSHVNTLGPEGTSSEYAAKHFISNFTLLQGLNSKLSLHDTFESCIERTLQSPLEYTIVPHAYDGIKHFYMRPDLQLLQIFRCDTPMYGLAVRPDFEFRDDMLDTSVIVSHPSPINLIKYFTRKDVRFKLVNSTSQAARKVKEGLYDIALTNELARQKYGLTFVKTFKSIPMSWSLFGKGDV | soluble
3 | MGHPARMAILSFLAKQESCFFGDIHEELPIAKATVSQHLKELKDAGLIQGEIETPKVRYCINKENWELARKLFAAFLGDCKCTGTSCCG | not soluble
4 | MGHQVAIYDSRPFVGGKVGSWIDADGNHIEMGLHVFFFNYANLFALMRKVGAFENLLPKAHTHTFINKGGEVGELDFRFPIGAPFNGLKAFFTTSQLTWLDKLQSALALGTSPLVRGILDYEGAMKIIRALDRISFADWFRSHGGSEGSLKRMWNPIAYALGFIDTENISARCMLTVFQMFAAKTEASKLNLLAGSPAEYLHKPILDYIQARGATLHLQRRVREIEYTETNGQTVVTGLQIADGDAVERVEADVYLAACDVPGIQRLLPEAWRKWSEFDNIYKLDAVPVATVQLRFDGWVTELVDREKRHQLDHATGLDNLLYTADADFSCFTDLALSSPKDYYRKGQGSLLQCVLTPGDPFIAMKNEDIAQHVLKQVHELFPSSRDLNMTWSNVVKLAQSLYREAPGMDPFRPDQKTPIANFFLAGSYTQQDYIDSMEGATISGRRAAKAMLEAQAIAALEHHHHHH | not soluble
5 | MGICVVIPAFNAALTIEAVVRETLEQGLPLVVVDDGSEDGTADCVRGLPVNLVSHGRNRGKGAALKTGFAWALEYGFSGVITLDSDGQHDPTAITLLAETAKNDGWDILVASRFAQFNQMAGLRRHWNRFGAWCMKKRTGFQIDDSQSGFRYYSARLLRMVSLGKDGYDLEMEILMKAWQAGCTIGSVPVPARVADGRATSHFRPVRDTWNICMTFLRYMLEHHHHHH | not soluble
6 | MGISSSAPESLGFDTVLPPHLRQHSHPPAGISPKRFLCRDLWPAELPSPAVSSAVSGPTWPEGISAPVFGKQTHVPQRTGSQDCHSCDPTLPEWERKIPP | not soluble
7 | MGKLYVVPTPVGNLEDMTFRAIRVLKEVDLILAEDTRTSGILLKHFEIKNAMQSHHKFNEHKTVESVVNRIKAGETVALISDAGTPGISDPGFLVVRECVRNGIEVQCLPGATAFVPALVASGLPNEKFCFEGFLPQKKGRQTRLKALAEEHRTMVFYESPHRLLKTLTQFAEYFGTERQATVSREISKLHEETVRGSLAELIEHFTATEPRGEIVIVLAGIDD | soluble
8 | MGKNEILWGIAPIGWRNDDMPEIGAGNTLQHLLSDIVVARFQGTEVGGFFPEPAILNKELKLRNLRIAGKWFSSFILRDGLGEAAKTFTLHCEYLQQVNADVAVVSEQTYSVQSLEKNVFTEKPHFTDDEWERLCEGLNHLGEIAAQHGLKLVYHHHLGTGVQTAEEVDRLMAGTDPAHVHLLYDTGHAYISDGDYMGMLEKHIGRIKHVHFKDARLNVMEQCRLEGQSFRQSFLKGMFTVPGDGCIDFREVYQLLLKHSYSGWIVIEAEQDPDVANPLEYALIARNYIDQQLLDLAMGHHHHHHSH | soluble
9 | MGKRKTKEDNASEDYDANELMIVPGEKRKKLEKSGEKSATGGKKNRNFAKEKEVAKLTKQAKRKLAAVQSRKALKQTQEELFAGLAEFQLDPSKLCQLSSSTKLSKEPEKAPVFPEKLKVFSGKTKTEAKRTQQDYYPTDDESSSEEEEEEEEGDNDIEDAGNTVEVKIEPIDLDDVDEAIDGNPETNLDQIVVKREDDEESDNEDILALPTTTVINRKKVIVERSKEIQKSRAELPIFAEEMRIVEAINENLVTVVCGETGSGKTTQIPQFLYEAGYASEGELIGITEPRRVAAIAMAQRVGVELAKPDEVSYQIRYEGTRSETTNILFMTDGVLMKEMEQDVMLKKYSVILIDEAHERSMYSDVLIGMLSRIVPLRSKTARPLRLVIMSATLRLDDFTHKKLFPLLTPKVIKVDARQFPVSVHFEKRTPDDYIASAFRKTCRIHETLPPGAILVFVTGQHEVKQLITKLKKRYPVVYETDKNGEVLVKGTKEWKEKKVEAAKSIKLEDFKEETPETEDFEDVDDGLMDGDDMNERGAAEAFDDYEEFENGDGDLSDGKVENSIGAPPADCEPLYCLPLYSLLSMGKQRRVFDETPAGMRLCVISTNVAETSLTIPGVKYVIDGGFEKRRLYDSITGVSRFAVCRISQASGDQRAGRAGRISAGHAYRLYSSAVYQDFVKFADPEILSKPADQLVLHLKSMNIVKVVNFPFPSAPDEQMLESAEKRLCRLGALSESTKNGKTEARITKLGKTLAVFPLAPSYAKFIAMADQHNLMSHAILLISLLSVREPLIPVSSLRGDTPEETKELMKNVLKERRRWCSHTGARRLGDLKVLMHAASVAEQIKYNARECEKVGLRVKALVEARKLRQQLTNIVNASCKKEHAAALDSDLPPPTDQQAQLLRQMVVASFSDRLARRVDRSVGQEEVQKGAYETTLIKGHVFIDPCSVVFTEEPEFVIYQELVQVNEKKLMTSVCAVDKEWLSRLAESYCNYGEQDKNQEPIYDPVKDMVVKTVKVTFGPLNWELPNENRSVPHDIMMYRYFALFLLDGLVFEKLKEYTPKLLAPPSTMVKSWAKLQKRTEMLLNKLIEKEVTTRSSLKEQWLKNENWLLEEYLEWVPESVHQQISLMWPPLEDHEKTIKMGRNKKY | not soluble
10 | MGKRVLIVDDATNGREAVEKYKELKPDIVTMDITMPEMNGIDAIKEIMKIDPNAKIIVCSAMGQQAMVIEAIKAGAKDFIVNTAAVENPSLITQIAQTFGSQAVVVAIDAKRVDGEFMVFTYSGKKNTGILLRDWVVEVEKRGAGEILLTSIDRDGTKSGYDTEMIRFVRPLTTLPIIASGGAGKMEHFLEAFLAGADAALAASVFHFREIDVRELKEYLKKHGVNVRLEGLLEHHH | soluble
11 | MGKTFTVGSLKHAVRSSERPISAAPPKPDGPSAVRPSVIQIEQKGKTFTVQPAPGVSLLDAALGQGVLLDHKCKKGTCGRCMVTVLAGAHLLAPKTRREREKTDQPAKRLACQAQIQ | not soluble
12 | MGKVTIIAGGIKTESRLTGLTQLAANELVTNGLEVNIIEVHKINAEALVTADFAHSDIQLANSEIESSSGVIIATPIFKAAYSGVLKAYLDLLPLKALKGKVVLPLGLGGSNGHLLALQYALDPVLKELGAETILKGQFTVDKQIERLGDGLYEIESSAKERLDIALGQFISLLNQQSVEVLEHHHHHH | soluble
13 | MGKYDALVELLLEAVKEGANIHQEDCSIPVGISNRHIHLSQADVNTLFGEGYSLTRIKDLSQPGQYACKETLTICGPKGAIENVRILGPERRESQVEILRTDCFKLGLKAPVKLSGELQGTPGMTLVGPKGSVLLSQGVIVAQRHIHMSLEDAQRFGVRDGELVTIQINGLRGGTYANVAIRANNTSQLECHIDTDEANGMDLTPTSRITIIK | not soluble
14 | MGKYFGTDGVRGVANSELTPELAFKVGRFGGYVLTKDKQRPKVLIGRDTRISGHMLEGALVAGLLSIGAEVMRLGVISTPGVSYLTKAMDAEAGVMISASHNPVQDNGIKFFGGDGFKLSDEQEAEIERLMDEPEDKLPRPVGADLGLVNDYFEGGQKYLQFLKQTADEDFTGIHVALDCANGATSSLATHLFADLDADVSTMGTSPNGLNINDGVGSTHPEALSAFVKEKNADLGLAFDGDGDRLIAVDEKGNIVDGDQIMYICSKHLKSEGRLKDDTVVSTVMSNLGFYKALEKEGIKSVQTAVGDRYVVEAMKKDGYNVGGEQSGHLIFLDYNTTGDGLLSAIMLMNTLKATGKPLSELAAEMQKFPQLLVNVRVTDKYKVEENEKVKAVISEVEKEMNGDGRILVRPSGTEPLVRVMAEAKTKELCDEYVNRIVEVVRSEMGLE | not soluble
15 | MGLFASAPVDDGSMEIVRDFIQNMENDAQSSNKSAFADCFMDTFNFNVRGRIFTKALFVESYLTKPNPEPLILKSSIFTQGKNEIKFNVSHVVGPRTNIADFYLLREGEEGKWRLKSGIVIN | not soluble
16 | MGLFDGLLGNATQNNNETAEKELRDVLIPNEKVDMAFTLVRDLIVFTDKRLILVDKQGITGKKVDYKSIPYKSISRFSVETSGHFDLDAELKIWISSTELPSVSLQFRKDKDIVAIQQALAAAVLS | not soluble
17 | MGLFQSDKAAEEIDPPQDVTFVNDEAGANSNTTAAKKTESEKSDTAKADQASSTVMRELYLIDKNGYVVAQTLPLPKSESTAKQALEYLVQGGPVSEILPNGFRAVLPADTTVNVDIKKDGTAIADFSNEFKNYKKEDEQKIVQSVTWTLTQFSSIDKVKLRINGHELKEMPVGGTPISDDLSRKDGINLETAGVNDLTATHPLTVYYLAENEDSEYYVPVTKRIDNSEKDDITAAINELAKGPSKVSGLLTDFSEDVKLVSKPKIKDGRVTLDFNQSIFGSADEKTKMISSEVLNSIVLTLTEQPDVKSVSVKVNGKSELVNEKGEKLTEPVSRPSQVNTGSFLEHHHHHH | soluble
18 | MGLGSSKRKEEPPHKSEPKTVGRVKRAGARPDEMIAKYAEVLKTRGILPEYFLVHEAKSSQYIDEDGDVANEFYQETMSDGEKRRLCRLMKNLRPKGKERYAIPRLKHDIPVVIWEVQQPQET | not soluble
19 | MGLQKKLNYKKTESERSFYRGSNLKQVMGEDIVSKFDYIGPIRWIFLNYCTGYFIFVEELTNNSEIRSDRLEFIDTMNKIFSEAEQYFNSAPKERPKNPKSLAEYKYLGYYRLSFSNTNPDNSAIIRLNDVEVEKSELPPLLNLDTDEILDYAV | not soluble
20 | MGLSHKFQVKQFVEISPYSQSRLRHEQPQTPIHSDITTYHCHRGQFDIVAGGLPCQGTSNAGNRQGLDDPRSALWAEQFRIIESDRPAIALIENPTGLLYRGLEQIICDLDSIGYMGEWNCISAQQVGLPHQRKRIFIIAYSNGLFNQVVPAPWSNQIGNHITQVRLSLETRSYQPGISKVASRIPIGVAKNIPGNYDARRAYGLSCSPRQAAVAWKRIDYLCSLLEHHHHHH | not soluble
21 | MGLTEQKQKHMEQLSDKNGIISALAFDQRGALKRLMAKYQSEEPTVSQIEALKVLVAEELTPYASSMLLDPEYGLPATKVLDDNAGLLLAYEKTGYDTSSTKRLPDCLDIWSAKRIKEEGADAVKFLLYYDVDSSDEVNEEKEAYIERIGSECVAEDIPFFLEILSYDEKITDSSGIEYAKIKPRKVIEAMKVFSNPRFNIDVLKVEVPVNMDYVEGFAQGETAYNKATAAAYFREQDQATLLPYIFLSAGVPAQLFQETLVFAKEAGAKFNGVLCGRATWAGSVKEYVEKGEAGARQWLRTIGFQNIDELNKILQKTATSWKER | not soluble
22 | MGLTISSLFSRLFGKKQMRILMVGLDAAGKTTILYKLKLGEIVTTIPTIGFNVETVEYKNICFTVWDVGGQDKIRPLWRHYFQNTQGLIFVVDSNDRERIQEGAAVLEKMLLEDELQDAVLLLFANKQDLPNAMAISEMTDKLGLQSLRNRTWYVQATCATQGTGLYEGLDWLSHELSNVK | soluble
23 | MGLWYRMLENQDLEEVITVRVQDPRVQNEGSWNSYVDYKIFLHTNSKAFTAKTSCVRRRYREFVWLRKQLQRNAGLVPVPELPGKSTFFGGSDEFIEKRRQGLQHFLEKVLQSVVLLSDSQLHLFLQSQLSVPEIEACVQGRGAMTVSDAILSYAMSNCGWAQEERQSTSHLAKGDQLNSCCFLPRSGRRSSPSPPLSEEKEQLETWAPVMDSEGPSSESPTLLPSSSLPACWDPARPEEGLSVSQPARRAVAADQAGPMEPTQLDTAWDK | soluble
